Assay results taken from the nanobody polyreactivity screen of Harvey et al. (2022).

Test: yeast display, Sf9 membrane polyspecificity reagent, FACS + sequencing; frameworks hold sequencing errors
Summary of the method: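 Synthetic nanobody libraries on Saccharomyces cerevisiae BJ5465 were galactose-induced for 36–48 hours, stained 1 hour at 4 °C with 10% biotinylated, detergent-solubilized Sf9 membrane reagent and enriched on streptavidin microbeads. FACS then separated cells into low and high (top ~1%) gates by anti-HA (expression) and streptavidin (reagent binding) fluorescence. Genes were colony-PCR amplified, MiSeq 2 × 250 sequenced and CDR-length filtered. A clone's polyreactivity label is that of its gate of origin.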

Question: Which “polyreactivity (PSR sort gate)” value does the source give for “QVQLVESGGGLVQAGGSLRLSCAASGSIFKINAMGWYRQAPGKERELVATITWSTGTTYYADSVKGRFTISRDNAKNTVYLQMNSLKPEDTAVYYCATDGDSTKLDYWGQGTQVTVSS” here?
Answer: low polyreactivity

Question: With “QVQLVESGGGLVQAGGSLRLSCAASGRTIANNAMGWYRQAPGKERQLVAVITNSGRTYYADSVKGRFTISRDNAKNTVYLQMNSLKPEDTAVYYCAVRYFDRGGSEHPVTFYWGQGTQVTVSS” as the sequence, how does the “polyreactivity (PSR sort gate)” value read?
Answer: high polyreactivity

Question: For “QVQLVESGGGLVQAGGSLRLSCAAYGRTFPLYAMGWYRQAPGKEREFVAAISSRGGRTYYADSVKGRFTISRDNEKNTVYLQMNSLKPEDTAVYYCNARYVHDGFDYWGQGTQVTVSS”, which “polyreactivity (PSR sort gate)” value is on record?
Answer: high polyreactivity

Question: With “QVQLVESGGGLVQAGGSLRLSCAASGRTFRYNAMGWYRQAPGKERELVAAISASGGSTYYADSVKGRFTISRDNAKNTVYLQMNSLKPEDTAVYYCATYYRVGYDYWGQGTQVTVSS” as the sequence, how does the “polyreactivity (PSR sort gate)” value read?
Answer: high polyreactivity

Question: Which “polyreactivity (PSR sort gate)” value does the source give for “QVQLVESGGGLVQAGGSLRLSCAASGFTFDTNAMGWYRLAPGKERELVAAISRIGGRPYADSVKGRFTISRDNAKNTVYLQMNSLKPEDTAVYYGAADTTGYPYGYDSWGQGTQVTVSS” here?
Answer: low polyreactivity

Question: With “QVQLVESGGGLVQAGGSLRLSCAASGSTFTRYDMGWYRQAPGKERELVAAISKSGGSTYYADSVKGRFTISRDNAKNTVYLQMNSLKPEDTAVYYCARGSTKYHIYSLDYWGQGTQVTVSS” as the sequence, how does the “polyreactivity (PSR sort gate)” value read?
Answer: low polyreactivity

Question: Which “polyreactivity (PSR sort gate)” value does the source give for “QVQLVESGGGLVQAGGSLRLSCAASGRTYVYNAMGWYRQAPGKERELVAAISSSGGSTRYADSVKGRFTISRDNAKNTVYLQMNSVKPEDTAVYYCNRLRYSNRYDSWGQGTQVTVSS” here?
Answer: high polyreactivity

Question: With “QVQLVESGGGLVQAGGSLRLSCAASVSTFPFYSMGWYRQAPGKERELVAAITSGGSTYADSVKGRFTISRDNAKNTVYLQMNSLKPEDTAVYYCAASWPRWWRFGYWGQGTQVTVSS” as the sequence, how does the “polyreactivity (PSR sort gate)” value read?
Answer: low polyreactivity

Question: Which “polyreactivity (PSR sort gate)” value does the source give for “QVQLVESGGGLVQAGGSLRLSCAASGLTFAYYVMGWYRQAPGKERELVATITRGGDTNYADSVKGRFTISRDNAKNTVYLQINSLKPEDTAVYYCAAGSYRDRTFAYNYWGQGTQVTVSA” here?
Answer: high polyreactivity

Question: For “QVQLQETGGGLVQAGGILGCAASGNISTRSEMGWYRQATGKEREFVATINSGGITNYADSVKGRFTISRDNAKNTVYLRMNSLKPEDTAVYYRAVYGYFSDPYDYWGQGTQVTVSS”, which “polyreactivity (PSR sort gate)” value is on record?
Answer: low polyreactivity

Question: For “QVQLVESGGGLVQAGGSLRLICAASGGTFSHNDMGWYRQAPGKEMELVASINSGGSTNYADSVKGRFTISRDNAKNTVYLQMNSLKPEDSAVYYCAADVEGWTVESDVYRVGYDYWGHGTQVTVSS”, which “polyreactivity (PSR sort gate)” value is on record?
Answer: low polyreactivity

Question: For “QVQLVESGGGLVQAGGSLRLSCAASGFIINKYTMGWYRQAPGKERELVAAITWSGGTTYYADSVKGRFTISRDNAKNTVYLQMNSLKPEDTALYYCAAYYYRGRVCAYDYWGQGTQVTVSS”, which “polyreactivity (PSR sort gate)” value is on record?
Answer: high polyreactivity

Question: With “QVQLVESGGGLVQAGGSLRLSCAASGFTFGLYAMGWYRQAPGKERELVASITWSGGSTYYADSVKGRFTISRDNAKNTVYLQMNSLKPEDTAVYDCAKRLYLITWAASSADDYWGQGTQVTVSS” as the sequence, how does the “polyreactivity (PSR sort gate)” value read?
Answer: low polyreactivity

Question: For “QVQLVESGGGLVQAGGSLRLSCAASGRIFHYYAMGWYRQAPGKERELVADSSWSGGRTYYADSVKGRFTISRDNAKNTVYLQMNSLKPEDTAVYYCAAGHSYRPYYYYGEYDYWGQGTQVTVSS”, which “polyreactivity (PSR sort gate)” value is on record?
Answer: high polyreactivity

Question: With “QVQLVESGGGLVQAGGSLRLSCAASGRIFLGYAMGWYRQAPGKERELVARITLIGGGTNYADSVKGRFTISRDNAKNTVYLQMNSLKPEDTAVYYCAAKSPLRPWWVGAVSGNYWGQGTQVTVSS” as the sequence, how does the “polyreactivity (PSR sort gate)” value read?
Answer: low polyreactivity

Question: Which “polyreactivity (PSR sort gate)” value does the source give for “QVQLQESGGVLVQAGGSLRLSCAASGYISWYSEMGWYRKAPCKEREFVATNTCGTTTNYAVSVKGRFTISRDNAKNTVYLQKNSLKPEDTAVYYCAVHDARHYEFDYWGQGTQVTVSS” here?
Answer: high polyreactivity

Question: For “QVQLVESGGGLVQAGGSLRLSCAASGFIFYQYTMGWYRQAPGKERELVAAISSGGSTYYADSVKGRFTISRDNAKNTVYLQMNSLKPEDTAVYYCAAVAYGNWYRYYYWGQGTQVTVSS”, which “polyreactivity (PSR sort gate)” value is on record?
Answer: high polyreactivity

Question: With “QVQLVESSGGLVQAGGSLRLSCAASGFSFKRYAMGWYRQAPGTERELVAAINSGGSTNYADSVKGRFTMSRDNAKNTVYLQMNSLKPEDTAVYSCAASTPQYQYYYWGQGTQVTVSS” as the sequence, how does the “polyreactivity (PSR sort gate)” value read?
Answer: high polyreactivity

Question: With “QVQLVESGGGLVQAGGSLRLSCAASGRIFTDYAMGWYRQAPGKEREFVAAINKSGGSTYYADSVKGRFTISRDNAKNTVYLQMNSLKPEDTAVYYCAKPHVIYPSYDYWGQGTQVTVSS” as the sequence, how does the “polyreactivity (PSR sort gate)” value read?
Answer: low polyreactivity

Question: Which “polyreactivity (PSR sort gate)” value does the source give for “QVQLVESGGGLVQAGGSLRLSCAASGFTLDVYVMGWYRPAPGKERELVAAIRDSDDDTSYADSVKGRFTISRDNAKNTVYLQMNSLKPEDTAVYYCAVDYPTQPWGYYLLMDYWGQGTQVTVSS” here?
Answer: low polyreactivity

Question: For “QVQLVESGGGLVQAGGSLRLSCAASGSIFLAYAMGWYRQAPGKEMELVATISVSGTTTYYADSVKGRFTISRDNAKNTVYLQMNSLKPEDTAVYYCAADQQDGLWDYQDWYDYWGQGTQVTVSS”, which “polyreactivity (PSR sort gate)” value is on record?
Answer: low polyreactivity

Question: Which “polyreactivity (PSR sort gate)” value does the source give for “QVQLVESGGGLVQAGGSLRLSCAASGRTFFFNAMGWYRQAPGKERELVARITWSGGSTYYADSVKGRFTISRDNAKNTVYLQMNSLKPEDTAVYYCNTRRFPYDGIEHDYWGQGTQVTVSS” here?
Answer: low polyreactivity

Question: For “QVQLVESGGGLVQAGGSLRLSCAASGRIFAPYAMGWYRQAPGKERELVAAITSGGSTNYADSVKGRFTISRDNAKNTVYLQMNSLKPEDTAVYYCAAEASYNYGKYVVTYDYWGQGTQVTVSS”, which “polyreactivity (PSR sort gate)” value is on record?
Answer: high polyreactivity

Question: For “QVQLVESGGGLVQAGGSLRLTCAASGSTFSANAMGWYRPGPGKERELVAGISRSGGRTYYADSVKGRFTISRDNAKNTVYLQMNSLKPEDTAVYFCNDRRRGAGGYDYWGQGTQVTVSS”, which “polyreactivity (PSR sort gate)” value is on record?
Answer: high polyreactivity

Question: Which “polyreactivity (PSR sort gate)” value does the source give for “QVQLVESGGGLVQAGGSLRLSCAASGRIFGLYAMGWYRQAPGKEREFVAAINWDGGSTFYADSVKGRFTISRDNAKNTVYLQMNSLKPEDTAVYYCAADVYSYVSYSTYVSVFTYDYWGQGTQVTVSS” here?
Answer: low polyreactivity

Question: With “QVQLVESGGGLVQAGGSLRLSCAASGRTFYRNAMGWYRQAPGKERELVARITSGGSTNYADSVKGRFTISRDNAKNTVYLQMNSLKPEDTAVYYCAAVSRYYPYGYWGQGTQVNVSS” as the sequence, how does the “polyreactivity (PSR sort gate)” value read?
Answer: high polyreactivity

Question: With “QVQLQESGGGMVQAGGSLRLSCAASGYISWADYMVWYRQAPGKERELVAGIGYGSTTYYADSVKGRFTISRDNAKNTAYLQMNSLKPEDTAVYYCAVGWYRDTAYKYWGQGTQVTVSS” as the sequence, how does the “polyreactivity (PSR sort gate)” value read?
Answer: low polyreactivity

Question: For “QVQLVESGGGLVQAGGSLRLSCAASGSIFWGYAMGWYRQAPGKERELVATITYGGDSTYYADSVKGRFTISRDNAKNTVYLQMNSLKPEDTAVYYCNVGVEPYDYDYWGQGTQVTVSS”, which “polyreactivity (PSR sort gate)” value is on record?
Answer: low polyreactivity

Question: With “QVQHVESGGGLVQAGGSLRISCAASGSIFYYNAMGWYRQAPGKERELVAAISWGDGITYYADSVKGRFTISRDNAKNTVYLQMNSLKPEDTAVYYCAVDYYYLAYEYWGQGTQVTVSS” as the sequence, how does the “polyreactivity (PSR sort gate)” value read?
Answer: high polyreactivity

Question: Which “polyreactivity (PSR sort gate)” value does the source give for “QVQLVESGGGLVQAGGSLRLSCAASGSTFTPYAMGWYRQAPGKERELVAAINSRGGSTYYADSVKGRFTISRDNAKNTVYLQMHSLKPEDSAVYYCAARTRRRTSAYEYWGQGTQVTVSS” here?
Answer: high polyreactivity
